Test results as given in patent publication US20150064731A1 (PROMEGA, published 2015).

Biological target: the molecule itself
Test: gel filtration chromatography (Superdex 200 5/150 GL) of the purified protein; self-association
Description: Gel filtration analysis was used to verify the expected molecular weight of the purified OgLuc proteins based on the theoretical values and consequently to determine their oligomeric state. A comparison between the relative hydrodynamic volume of the OgLuc variants C1+A4E and 9B8 was made by gel filtration chromatography. For this analysis, the nucleotide sequence for the OgLuc variants, C1+A4E and 9B8, were cloned into a HQ-Tagged Flexi® Vector (Promega Corp.) to create a HQHQHQ (SEQ ID NO: 580) N-terminally tagged protein that was overexpressed in E. coli KRX cells. The overexpressed proteins were purified using the HisLink™ Protein Purification System (Promega Corp.) according to manufacturer's instructions. Samples of each individual standard and sample protein were analyzed by gel filtration chromatography, which was performed at 24° C. on an Agilent 1200 HPLC, using a Superdex 200 5/150 GL column (GE Healthcare) with a flow rate of 0.25 mL/min (FIGS. 43A-B). The mobile phase (i.e., running buffer) consisted of 50 mM Tris and 150 mM NaCl, pH 7.5. Protein elution was monitored at 214 and 280 nm. A standard calibration curve was generated using: 1) Ovalbumin, 43 kDa (GE Healthcare), 2) Carbonic Anhydrase, 29 kDa (Sigma) and 3) Myoglobin, 17 kDa (Horse Heart, Sigma). The molecular weights of the purified proteins were calculated directly from the calibration curve.

B1: OgLuc variant 9B8, HQHQHQ N-terminally tagged (enzyme)
chain: HQHQHQFTLEDFVGDWRQTAGYNLDQVLEQGGLSSLFQKLGVSVTPIQKIVLSGENGLKIDIHVIIPYEGLSGYQMGQIEKIFKVVYPVDDHHFKVILHYGTLVIDGVTPNMIDYFGRPYEGIAVFDGKKITVTGTLWNGNKIIDERLINPDGSLLFRVTINGVTGWRLCERILA
notes: Overexpressed in E. coli KRX and purified with the HisLink Protein Purification System for gel filtration
binding result: no binding
